Test results published in paper PMC11290490, “Structural insights into activation mechanisms on NADase of the bacterial DSR2 anti-phage defense system” (Science Advances, 2024).

B1: defense-associated sirtuin2 (DSR2) from Bacillus subtilis 29R (enzyme, UniProt P0DXN8 1-1005, looked up)
chain: MVKVDLESKRYGEKLKEVFLMLDNNVVECIKEITESSRNGKLVFFVGAGVSTLSDYPQWWRLVDKYHEELYGSPKKGNYSSDEYLRIPQIFYNVKGEMAFDGILKDFFQVDKPTNPIHDKILAMNPAHVITTNYDNLIDTACWKRGKYFSVISAEEDVANATSSRYLLKVHGDFRKGFKGENVVLKEDDYLNYDQNYPLISNLMKTIIATHTIVFIGYGLGDYNINMLLNWVRKLQKDSFHKPFFIRTDPSPIENETLIYYENKGLRIIDAASLIDSNEYDYLERYSAVMDLLIESQENKFITKDDEVIDYIYGKISPLFALQYIRKIDLKHVFEYDYHFEVNGTVVRHKNKGFGYMERFFELKESCDERSKLSKKQYERFNALFNFFEKNGVICMAKDAGTLNTSIEINSLAYHGKYDVMKKFIEEQSVSIEDDYKKAFFLACLGRWEESYDLYSNIILNSIDESNGCVYYLSQINRYRIYQSITQAVTQFNGLGLLTFGRHYKPFTDEFLARIEREMTNFNIDDLFNGMPFEFQKKYKILEFLSDNQFLYDDTVKLFELTNKVRSEMSEGSYSFGMSSDIVVLLRLYDNLRFLYENCLWSVSFHEFHQYIRNSMSLLIEKAEYERTRDIDELGFSFFGKKSGFFMEYYDFVNISRHFKIDDIKNLERSCSIDKIRFGEQEKIEEYLVGIAEEITKQFSANGMNVVFYTQFISEAKAALYFAKYVKLSEEGLGKIVKALLFYFPERDLDIGKRYVWLERLTKCNELPKSIISIIDDFLVLQAEKHIDQNYSEVSSNGLYSRDYGALIKHFEKNFISKRLSEITLCLTQDKQKQIDFLFKLLPLLSTNAKSHLLSFKSVENINDLMNGIRIGLIDEFTPEHEELIIEYLETRKVNYIVEKEKGIQTFSSNDYMSTFGIWYFLEEINNSKMEEFIGMDDQYDFFVDPENFDYKKFIPSWLKNYNDKLLGKIAGNKHMKHHVIEVLKERVKNSNDKRYLEILMNYFI
notes: DSR2 from Bacillus subtilis 29R, WP_029317421; SIR2 domain residues 1 to 297, MID 297 to 627, CTD 627 to 1005; Cloned into pET28a; tag not cleaved (purified directly by SEC); For MST the protein was fluorescently labelled with the Monolith Protein Labeling Kit RED-NHS second generation; also called DSR2^WT; His-tag DSR2; source: E. coli BL21(DE3), purified (Ni-NTA, size-exclusion gel filtration)
B2: monomeric tail tube protein (TTP) of phage SPR (natural protein)
chain: MKTVIQDTADVYFKRKSDGKLVFTAEAQTASFSQAISEEKLRGGIGNKPLYILKSEKEINLTVKNAFFDLEWLAMTQGETIQEETKVKVFDREHGLIVDDTNKVTLKGKPVSDVTFYNKKGLTYKIAVSTDGTYTIPTAFAAAKDKLTAVYQIEKVGRRLAIKASKFSERYEVEYRTIAYNPDTEEVYSDIYIQFPNVSPSGEFEMSLENGNALAPEIKFEALADTDTDEMAVVIEASRDENTAAPVEDTTGSTQSSDLGGTTE
notes: tail tube protein (TTP) from phage SPR, WP_010328117; residues 1 to 73 and 189 to 263 seen in the complex structure; also called Mono TTP; monomeric TTP; source: E. coli BL21(DE3), purified (Ni-NTA, TEV cleavage, SEC; monomeric fraction); not shown: His-tag, N-terminal, cleaved; Trx-tag, N-terminal, cleaved
B3: DSR anti-defense 1 (DSAD1) from phage phi3T/SPbeta (natural protein)
chain: KDTGATHDLVYHSKINTFVWDVEFDIVLSDSKELNKCYFVKCFNPYRINGKCDFAVSSIDIFSEGKRLLIENEFNFKITKAVHVATSKDVTEIVLHLSERISSPFPIVKEVVYLD
notes: DSAD1 from phage phi3T/SPbeta, WP_004399562; source: E. coli BL21(DE3), purified (Ni-NTA, TEV cleavage, SEC); not shown: His-tag, N-terminal, cleaved; Trx-tag, N-terminal, cleaved

How the values were obtained:
[1] = target: the molecule itself; assay: cryo-EM structure; purified DSR2 or its complex with DSAD1 or TTP (formed at a molar ratio of 1:3, on ice, purified by gel filtration), 1.0 mg/ml on Quantifoil grids
[2] = target: B1; assay: MST; DSR2 fluorescently labelled (RED-NHS), 100 nM, mixed with twofold dilutions of TTP or DSAD1; 10 mM phosphate-buffered saline, 0.05% Tween 20; 20 min at room temperature; Monolith NT.115; triplicate; conditions: both partners purified
[3] = target: B1; assay: cryo-EM structure; purified DSR2 or its complex with DSAD1 or TTP (formed at a molar ratio of 1:3, on ice, purified by gel filtration), 1.0 mg/ml on Quantifoil grids; conditions: both partners purified

With B1 the “stoichiometry N” value [1] was 4.

With B2 the Kd [2] was 655 nM.

For B3, the Kd [2] was 40.4 nM and the “stoichiometry N” value [3] was 0.5 DSAD1:DSR2.
